The results in this text go back to article PMC7813835, “Structure of SRSF1 RRM1 bound to RNA reveals an unexpected bimodal mode of interaction and explains its involvement in SMN1 exon7 splicing”.

For data set [1], the target named is T1, SRSF1 RRM1 (YS or WT not stated) (human, UniProt Q07955 1-97). As to the kind of experiment: NMR; NMR buffer: 50 mM L-Glu, 50 mM L-Arg, 0.05% beta-mercaptoethanol, 20 mM Na2HPO4 pH 7 (RRM1+2: plus 150 mM KCl, 1.5 mM MgCl2, 0.2 mM EDTA); NMR and ITC at 40 C. Particulars: protein: recombinant; tags: N-terminal GB1-6xHis.
T1 sequence (Q07955 1-97): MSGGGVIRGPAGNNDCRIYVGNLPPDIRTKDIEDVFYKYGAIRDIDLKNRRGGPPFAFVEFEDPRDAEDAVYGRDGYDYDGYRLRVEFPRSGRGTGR
The next data set has as its target SRSF1 RRM1 YS (human, UniProt Q07955 1-97, Y37S;Y72S). As to the kind of experiment: ITC; NMR buffer: 50 mM L-Glu, 50 mM L-Arg, 0.05% beta-mercaptoethanol, 20 mM Na2HPO4 pH 7 (RRM1+2: plus 150 mM KCl, 1.5 mM MgCl2, 0.2 mM EDTA); NMR and ITC at 40 C. As to conditions: protein: recombinant; tags: N-terminal GB1-6xHis. A general note: ITC needs no label: the signal is the heat of the interaction.

Data set [2] concerns the target T2, SRSF1 RRM1+2 YS (RRM12 YS) (human, UniProt Q07955 1-196, Y37S;Y72S). As to the kind of experiment: ITC; 143 in the reviewer reply; NMR buffer: 50 mM L-Glu, 50 mM L-Arg, 0.05% beta-mercaptoethanol, 20 mM Na2HPO4 pH 7 (RRM1+2: plus 150 mM KCl, 1.5 mM MgCl2, 0.2 mM EDTA); NMR and ITC at 40 C. Particulars: protein: recombinant; tags: GB1, His.
Data set [3] concerns the target T2, SRSF1 RRM1+2 YS (RRM12 YS). In words: ITC; NMR buffer: 50 mM L-Glu, 50 mM L-Arg, 0.05% beta-mercaptoethanol, 20 mM Na2HPO4 pH 7 (RRM1+2: plus 150 mM KCl, 1.5 mM MgCl2, 0.2 mM EDTA); NMR and ITC at 40 C. As to conditions: protein: recombinant; tags: GB1, His.
The target in another data set is SRSF1 RRM1 WT (human, UniProt Q07955 1-97). As to the kind of experiment: NMR; saturation at 1:1; NMR buffer: 50 mM L-Glu, 50 mM L-Arg, 0.05% beta-mercaptoethanol, 20 mM Na2HPO4 pH 7 (RRM1+2: plus 150 mM KCl, 1.5 mM MgCl2, 0.2 mM EDTA); NMR and ITC at 40 C. Particulars: protein: recombinant; tags: N-terminal GB1-6xHis.
Chain of SRSF1 RRM1 WT (Q07955 1-97): as above
Data set [4] has as its target T1, SRSF1 RRM1 (YS or WT not stated). As to the kind of experiment: NMR solution structure; 1:1 complex; NMR buffer: 50 mM L-Glu, 50 mM L-Arg, 0.05% beta-mercaptoethanol, 20 mM Na2HPO4 pH 7 (RRM1+2: plus 150 mM KCl, 1.5 mM MgCl2, 0.2 mM EDTA); NMR and ITC at 40 C. As to conditions: protein: recombinant; tags: N-terminal GB1-6xHis.
In data set [5] the target is T2, SRSF1 RRM1+2 YS (RRM12 YS). As to the kind of experiment: NMR; saturation at 1:1; NMR buffer: 50 mM L-Glu, 50 mM L-Arg, 0.05% beta-mercaptoethanol, 20 mM Na2HPO4 pH 7 (RRM1+2: plus 150 mM KCl, 1.5 mM MgCl2, 0.2 mM EDTA); NMR and ITC at 40 C. Particulars: protein: recombinant; tags: GB1, His.

T2 sequence (Q07955 1-196 Y37S/Y72S): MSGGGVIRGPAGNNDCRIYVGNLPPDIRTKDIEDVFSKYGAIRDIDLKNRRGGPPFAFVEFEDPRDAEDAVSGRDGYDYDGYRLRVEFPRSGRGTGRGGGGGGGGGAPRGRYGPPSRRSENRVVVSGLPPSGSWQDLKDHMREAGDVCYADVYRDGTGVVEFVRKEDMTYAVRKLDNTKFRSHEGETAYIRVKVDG
Chain of SRSF1 RRM1 YS (Q07955 1-97 Y37S/Y72S): as the sequence (Q07955 1-97) above, with Y37S, Y72S counted along it

Take UUCAGA (ssRNA) [SMN1 exon7 ESE1]: the binding result in data set [1] is “binds”.

In the case of GGGGGG (ssRNA) [polyG (NMR, length not stated)], the binding result in data set [1] is reported as “no binding”. For UUUUUU (ssRNA) [polyU (NMR, length not stated)], in data set [1], the binding result is “no binding”.

Regarding CCCCCC (ssRNA) [CCCCCC RNA (polyC)], the Kd in the data set with SRSF1 RRM1 YS was 11 µM. Take UGGAUUUUUUUU (ssRNA): the Kd in data set [2] came out at 0.145 µM.

Regarding UUUUUGGAU (ssRNA), the Kd in data set [3] was 0.164 µM.

In the case of UGGAUUUUUCAU (ssRNA), the Kd in data set [3] was determined as 0.055 µM. For the molecule AACGAA (ssRNA) [AACGAA RNA], in the data set with SRSF1 RRM1 YS, the Kd is 25 µM. In addition, the binding result in data set [1] is reported as “binds”. Take UUUAGA (ssRNA) [SMN2 exon7 ESE1 counterpart]: in data set [1], the binding result was “no binding”. Still for that read-out and setting: with CCCCCC (ssRNA) [polyC (NMR, length not stated)] the entry was “binds”. For UUUUUU (ssRNA) [UUUUUU RNA (polyU)], the binding result in the data set with SRSF1 RRM1 YS was “no binding”. For the molecule AACAAA (ssRNA) [AACAAA RNA], the Kd with SRSF1 RRM1 YS turned out to be 21 µM. In addition, the binding result (with SRSF1 RRM1 WT; in data set [4]) was “binds” each time. Regarding AAAAAA (ssRNA) [polyA (NMR, length not stated)], in data set [1], the binding result was “no binding”. Consider UCAUUGGAUUUUUCAU (ssRNA), for which, in data set [5], the binding result was “binds”.

The Kd is the constant that tells how readily two partners part at equilibrium.
